The values below come from article PMC9103184, “Kunitz-Type Peptides from Sea Anemones Protect Neuronal Cells against Parkinson’s Disease Inductors via Inhibition of ROS Production and ATP-Induced P2X7 Receptor Activation” (International Journal of Molecular Sciences, 2022).

A short description of this data set: Thermal stability by CD spectroscopy. The class given is physicochemical. How it is done: Figure 5 Evaluation of the thermal stability of peptides in deionized water via CD spectroscopy. Recordings of the CD spectra of HCIQ2c1 (a), HMIQ3c1 (b), HCIQ4c7 (c), and HCIQ1c9 (d) were conducted in the far UV region (190–240 nm) after the solutions were incubated over a temperature range from 25 °C to 100 °C for 20–25 min.
Circular dichroism (CD) spectra were recorded on a Chirascan-Plus CD spectropolarimeter (Applied Photophysics, Leatherhead, UK) in quartz cuvettes with an optical path length of 0.1 cm for the peptide spectrum region. The peptides were dissolved in deionized water ([…]) and incubated at temperatures ranging from 25 °C to 100 °C for 20–25 min before recording the CD spectra. The secondary structure elements were calculated using the Provencher–Glockner method using advanced Provencher calculation programs from the CDPro software package (Leatherhead, UK).

Regarding “HCIQ2c1: recombinant Kunitz-type peptide from Heteractis crispa, UniProtKB ID A0A6B7FBD3 (IQGNICSEPKKVGRCRGSFPRFYFDSETGKCTPFIYGGCGGNGNNFETLHACRAICRA; UniProt A0A6B7FBD3 28-85, looked up)”, for the setting “100 °C, deionized water, 20–25 min”, the “CD spectral change on further heating” value is given as “decreased positive peaks at 193 nm”. For the same substance, the “thermostability: retains conformation and biological activity until” value (CD spectra and residual trypsin-inhibitory activity) is 90–100 °C. Moreover, the “CD spectrum: no significant changes after heating until” value (deionized water, 25–100 °C for 20–25 min, 190–240 nm) is 90 °C.
